Sequences and labels used below:
T1: human IL-23R (interleukin-23 receptor) (human, UniProt Q5VWK5 24-629)
T1 sequence (looked up): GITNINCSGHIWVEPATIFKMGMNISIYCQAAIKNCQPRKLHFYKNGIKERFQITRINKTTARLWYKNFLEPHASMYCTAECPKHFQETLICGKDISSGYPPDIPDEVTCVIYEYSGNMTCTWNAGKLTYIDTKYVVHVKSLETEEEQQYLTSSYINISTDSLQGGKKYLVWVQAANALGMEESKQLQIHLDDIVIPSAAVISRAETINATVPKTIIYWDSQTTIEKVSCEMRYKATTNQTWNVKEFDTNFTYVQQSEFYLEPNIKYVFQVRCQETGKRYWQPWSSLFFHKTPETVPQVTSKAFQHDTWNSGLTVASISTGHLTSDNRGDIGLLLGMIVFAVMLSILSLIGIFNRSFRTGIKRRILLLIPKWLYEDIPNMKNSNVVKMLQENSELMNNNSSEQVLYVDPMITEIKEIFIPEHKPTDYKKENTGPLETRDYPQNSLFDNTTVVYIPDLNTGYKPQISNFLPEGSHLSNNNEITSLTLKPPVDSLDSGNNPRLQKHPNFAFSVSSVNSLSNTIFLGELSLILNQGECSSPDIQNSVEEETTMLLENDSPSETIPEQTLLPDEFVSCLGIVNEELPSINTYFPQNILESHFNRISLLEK

B1: Compound No. 315 (peptide)
peptide: Ac-[dR][Pen]NT[Trp(7-Me)]K(Ac)[Pen][AEF][2Nal][Ac3c]ENH[dPhe(4-NH2)]-NH2
modifications: disulfide 2-7
SMILES: CC(=O)NCCCC[C@@H]1NC(=O)[C@H](Cc2c[nH]c3c(C)cccc23)NC(=O)[C@H]([C@@H](C)O)NC(=O)[C@H](CC(N)=O)NC(=O)[C@@H](NC(=O)[C@@H](CCCNC(=N)N)NC(C)=O)C(C)(C)SSC(C)(C)[C@@H](C(=O)N[C@@H](Cc2ccc(OCCN)cc2)C(=O)N[C@@H](Cc2ccc3ccccc3c2)C(=O)NC2(C(=O)N[C@@H](CCC(=O)O)C(=O)N[C@@H](CC(N)=O)C(=O)N[C@@H](Cc3c[nH]cn3)C(=O)N[C@H](Cc3ccc(N)cc3)C(N)=O)CC2)NC1=O
B2: Compound No. 40 (peptide)
peptide: Ac-[dR]CQTWQ[Pen][AEF][2Nal][Ac6c][αMeE]N[αMeF]-NH2
modifications: disulfide 2-7
SMILES: CC(=O)N[C@H](CCCNC(=N)N)C(=O)N[C@H]1CSSC(C)(C)[C@@H](C(=O)N[C@@H](Cc2ccc(OCCN)cc2)C(=O)N[C@@H](Cc2ccc3ccccc3c2)C(=O)NC2(C(=O)N[C@@](C)(CCC(=O)O)C(=O)N[C@@H](CC(N)=O)C(=O)N[C@@](C)(Cc3ccccc3)C(N)=O)CCCCC2)NC(=O)[C@H](CCC(N)=O)NC(=O)[C@H](Cc2c[nH]c3ccccc23)NC(=O)[C@H]([C@@H](C)O)NC(=O)[C@H](CCC(N)=O)NC1=O
B3: Compound No. 313 (peptide)
peptide: Ac-[dR][Pen]NT[Trp(7-Me)]K(Ac)[Pen][AEF][2Nal][Thp]EN[Phe(3R-Me)]-NH2
modifications: disulfide 2-7
SMILES: CC(=O)NCCCC[C@@H]1NC(=O)[C@H](Cc2c[nH]c3c(C)cccc23)NC(=O)[C@H]([C@@H](C)O)NC(=O)[C@H](CC(N)=O)NC(=O)[C@@H](NC(=O)[C@@H](CCCNC(=N)N)NC(C)=O)C(C)(C)SSC(C)(C)[C@@H](C(=O)N[C@@H](Cc2ccc(OCCN)cc2)C(=O)N[C@@H](Cc2ccc3ccccc3c2)C(=O)NC2(C(=O)N[C@@H](CCC(=O)O)C(=O)N[C@@H](CC(N)=O)C(=O)N[C@H](C(N)=O)[C@H](C)c3ccccc3)CCOCC2)NC1=O
B4: Compound No. 316 (peptide)
peptide: Ac-[dR][Pen]NT[Trp(7-Me)]K(Ac)[Pen][AEF][2Nal][Ac3c]ENH[4AcDPhe]-NH2
modifications: disulfide 2-7
SMILES: CC(=O)NCCCC[C@@H]1NC(=O)[C@H](Cc2c[nH]c3c(C)cccc23)NC(=O)[C@H]([C@@H](C)O)NC(=O)[C@H](CC(N)=O)NC(=O)[C@@H](NC(=O)[C@@H](CCCNC(=N)N)NC(C)=O)C(C)(C)SSC(C)(C)[C@@H](C(=O)N[C@@H](Cc2ccc(OCCN)cc2)C(=O)N[C@@H](Cc2ccc3ccccc3c2)C(=O)NC2(C(=O)N[C@@H](CCC(=O)O)C(=O)N[C@@H](CC(N)=O)C(=O)N[C@@H](Cc3c[nH]cn3)C(=O)N[C@H](Cc3ccc(C(C)=O)cc3)C(N)=O)CC2)NC1=O
B5: Compound No. 317 (peptide)
peptide: XNTXKXXXXENX
modifications: MeCO-Pen-N-T-7MeW-K(Ac)-Pen-AEF-2Nal-Acpx-E-N-THP---CONH2; cyclized: Pen-Pen disulfide bond
B6: Compound No. 33 (peptide)
peptide: Propyl-[dR][Pen]QTWQ[Pen][AEF][2Nal][Thp]K(Alloc)NF-NH2
modifications: disulfide 2-7
SMILES: C=CCOC(=O)NCCCC[C@H](NC(=O)C1(NC(=O)[C@H](Cc2ccc3ccccc3c2)NC(=O)[C@H](Cc2ccc(OCCN)cc2)NC(=O)[C@H]2NC(=O)[C@H](CCC(N)=O)NC(=O)[C@H](Cc3c[nH]c4ccccc34)NC(=O)[C@H]([C@@H](C)O)NC(=O)[C@H](CCC(N)=O)NC(=O)[C@@H](NC(=O)[C@@H](CCCNC(=N)N)NCCC)C(C)(C)SSC2(C)C)CCOCC1)C(=O)N[C@@H](CC(N)=O)C(=O)N[C@@H](Cc1ccccc1)C(N)=O
B7: Compound No. 12 (peptide)
peptide: RXQTWQCFXXENN
modifications: not fully specified; Ac-[(D)Arg]-[Abu]-Q-T-W-Q-[Cys]-Phe[4-(2-aminoethoxy)]-[2-Nal]-[THP]-E-N-N-ac; cyclized: Abu-Cys thioether bond

*1 amine or outer side, *2 acyl side, *3 side chain or, on linkers, in order; H or OH if unused. Bridges are numbered along the chain shown (N, C = ends). Primed or numbered codes have the meaning given here. Where no end group is shown, it is not given here. [ ]: non-standard residue; d: D form. The star is where a group is joined. 4AcDPhe = D-(4-acyl)phenylalanine, CC(=O)c1ccc(C[C@@H](N[*:1])C(=O)[*:2])cc1; Phe(4-OMe)″ = 4-methoxyphenylalanine, COc1ccc(C[C@H](N[*:1])C(=O)[*:2])cc1; Trp(7-Ph) = N[C@@H](Cc1c[nH]c2c(-c3ccccc3)cccc12)C(=O)O; Phe(4-CONH2) = NC(=O)c1ccc(C[C@H](N)C(=O)O)cc1; Trp(7-Me) = Cc1cccc2c(C[C@H](N)C(=O)O)c[nH]c12; Phe(3R-Me) = C[C@H](c1ccccc1)[C@H](N)C(=O)O; dPhe(4-NH2) = Nc1ccc(C[C@@H](N)C(=O)O)cc1; αMeW = C[C@](N)(Cc1c[nH]c2ccccc12)C(=O)O; FPrpTriazoleMe_Acid = not defined here; 2Nal = N[C@@H](Cc1ccc2ccccc2c1)C(=O)O; AEF = NCCOc1ccc(C[C@H](N)C(=O)O)cc1; αMeF = C[C@](N)(Cc1ccccc1)C(=O)O; αMeE = C[C@](N)(CCC(=O)O)C(=O)O; Pen = CC(C)(S)[C@H](N)C(=O)O; αMeK = C[C@](N)(CCCCN)C(=O)O; Ac6c = NC1(C(=O)O)CCCCC1; Thp = NC1(C(=O)O)CCOCC1; Abu = CC[C@H](N)C(=O)O; Ac3c = NC1(C(=O)O)CC1; BH = not defined here; pr = not defined here; Aib = CC(C)(N)C(=O)O; Piv = CC(C)(C)C(=O)*; Alloc = C=CCOC(=O)*; Propyl = CCC*

The values below come from US20220402983A1 (Janssen / Centocor, published 2022).

The assay deals with T1, human IL-23R (interleukin-23 receptor). The experiment in a line: cell-based or functional assay.
Take B1: the “PBMC pSTAT3 IC50 (nM)” value amounted to 2 nM.
Consider Ac-[dR][Abu]QTWQC[AEF][2Nal][Ac6c][αMeE]N[Thp]-NH2 (thioether 2-7) [Compound No. 38], for which the “PBMC pSTAT3 IC50 (nM)” value is 4.3 nM.
Still for that read-out and setting: the value for B2 was 220 nM; that for Ac-[dR][Abu]QTWQC[AEF][2Nal][Thp][αMeE]N[αMePhe(4-F)]-NH2 (thioether 2-7) [Compound No. 36] was 14 nM.
Same read-out and setting: the same measure for Ac-[dR][Abu]QTWQC[AEF][2Nal][Thp]ENF-NH2 (thioether 2-7) [Compound No. 17]: 3.4 nM.
On to [dR]CQTWQ[Pen][AEF][2Nal][Thp]EN[Thp]-NH2 (disulfide 2-7; not fully specified (N-terminus)) [Compound No. 20], for which the “PBMC pSTAT3 IC50 (nM)” value stood at 3.1 nM.
With Ac-[dR][Abu]QTWQC[AEF][2Nal][Ac6c][αMeE]NF-NH2 (thioether 2-7) [Compound No. 27], the “PBMC pSTAT3 IC50 (nM)” value was 11 nM.
The same measure, in the same setting: the same measure for B3: 21 nM; for [dR][Abu]QTWQC[Phe(4-OMe)″][2Nal][Thp]EN[Thp]-NH2 (thioether 2-7; not fully specified (N-terminus)) [Compound No. 21]: 21 nM.
In the case of Ac-[dR][Pen]NT[Trp(7-Me)]K(Ac)[Pen][AEF](BH)[2Nal][Thp]EN[αMeF]-NH2 (disulfide 2-7; reading uncertain) [Compound No. 314], the “PBMC pSTAT3 IC50 (nM)” value amounted to 75 nM.
Consider Ac-[dR][Abu]QTWQC[AEF][2Nal][Ac6c][αMeE]N[αMeF]-NH2 (thioether 2-7) [Compound No. 29], for which the “PBMC pSTAT3 IC50 (nM)” value worked out at 30 nM.
Same read-out and setting: the same measure for Ac-[dR][Abu]QTWQ[Pen][AEF][2Nal][Ac6c][αMeE]N[Thp]-NH2 (thioether 2-7) [Compound No. 39]: 92 nM.
As for Ac-[dR][Abu]QT[Trp(7-Ph)]K(Ac)C[AEF][2Nal][αMeK]K(Ac)N[αMeF]-NH2 (thioether 2-7) [Compound No. 11], the “pStat3 HTRF (nM), IC50, DB cells IL23R pSTAT3 cell assay” value came out at 13.9 nM.
As for Ac-[dR][Abu]QTWQC[AEF][2Nal][Thp][αMeE]N[αMeW]-NH2 (thioether 2-7) [Compound No. 31], the “PBMC pSTAT3 IC50 (nM)” value amounted to 16 nM.
For the molecule Ac-[dR][Abu]QTWQC[AEF][2Nal][Ac6c][αMeE]NF[Aib]-NH2 (thioether 2-7) [Compound No. 28], the “PBMC pSTAT3 IC50 (nM)” value was 23 nM.
Consider B4, for which the “PBMC pSTAT3 IC50 (nM)” value was found to be 2.1 nM.
Same read-out and setting: the value for FPrpTriazoleMe_Acid-[dR][Abu]QTWQC[Phe(4-OMe)″][2Nal][Thp]EN[Thp]-NH2 (thioether 2-7; reading uncertain) [Compound No. 25] was 21 nM; that for B5 was 13 nM.
Turning to B6, the “PBMC pSTAT3 IC50 (nM)” value was 11 nM.
Still for that read-out and setting: the same measure for [dR][Abu]QTWQC[Phe(4-OMe)″][2Nal][Thp]EN[Thp]-NH2 (thioether 2-7) [Compound No. 22]: 22 nM.
Same read-out and setting: the value for Ac-[dR][Abu]QTWQC[AEF][2Nal][Thp][αMeE]N[Thp]-NH2 (thioether 2-7) [Compound No. 37] was 11 nM.
Ac-[dR][Abu]QTWQC[AEF][2Nal][Thp][αMeE]N[Phe(4-CONH2)]-NH2 (thioether 2-7) [Compound No. 34]: the “PBMC pSTAT3 IC50 (nM)” value came to 5.8 nM.
Same read-out and setting: the same measure for Ac-[dR][Abu]QTWQC[AEF][2Nal][Thp][αMeE]N[1(2Nal)]-NH2 (thioether 2-7) [Compound No. 32]: 19 nM; for B7: 20 nM.
As to pr-[dR][Pen]QTWQ[Pen][AEF][2Nal][Thp]K(Piv)NF-NH2 (disulfide 2-7; reading uncertain) [Compound No. 26], the “PBMC pSTAT3 IC50 (nM)” value was 8.2 nM.
Still for that read-out and setting: the same measure for Ac-[dR][Abu]QTWQC[AEF][2Nal][Thp][αMeE]N[2Nal]-NH2 (thioether 2-7) [Compound No. 35]: 25 nM; for [dR]CQTWQ[Pen][AEF][2Nal][Thp]EN[αMeF]-NH2 (disulfide 2-7; not fully specified (N-terminus)) [Compound No. 23]: 17 nM; for Ac-[dR][Abu]QTWQC[AEF][2Nal][Thp]QN[αMeF]-NH2 (thioether 2-7) [Compound No. 30]: 25 nM.
